Data as given in US6387643B1, “Human platelet heparanase polypeptides, polynucleotide molecules that encode them, and methods for the identification of compounds that alter heparanase activity” (Pharmacia and Upjohn Company, priority 1998, dated 2002).

How the values were obtained:
platelets = conditions: 1 U/ml thrombin; cited from earlier work
^35S-HSPG (>70 K) = test: Heparanase activity, Conventional Assay (degradation of 35S-HSPG, 30,000 MW cut-off filter); assay type: biochemical, mice
Description: The pH optimum of the purified heparanase was determined by conducting the assay described in Example 2 (the Conventional Assay) in the pH range of 3.5 to 8.0, using a citrate buffer (pH 3.5-6.0), citrate-phosphate buffer (pH 6.5-7.0), and phosphate buffer (pH 7.5-8). Heparanase was active between pH 5.0 and 8.0, with the optimum pH at 5.8.
^35S-HSPG (>70 K) was prepared from mice bearing a basement membrane tumor that overproduces HSPG (EHS tumor), using modifications of the method of Ledbetter et al. (Biochemistry 26: 988-995 (1987)). Briefly, the radiolabeled HSPG was prepared by injecting C57BL mice bearing the EHS tumor with sodium [^35S] sulfate (0.5 mCi/mouse) 18 h before harvesting the tumor. […]
^35S-HSPG was isolated from the Buffer B supernatant by sequential chromatography on anion exchange and gel filtration columns. […] Fractions were sampled for radioactivity, and those containing the ^35SO4 label that eluted from the DEAE-Sephacel between 0.4 M and 0.8 M NaCl were pooled. […] Fractions were sampled for radioactivity, and those containing the ^35SO4 label that elutes with a molecular weight 70 kDa were pooled. […]
Heparanase activity from platelets or column fractions was detected by its ability to digest the 70 kDa ^35S-HSPG to produce lower molecular weight products. not retained by a 30,000 MW cut-off membrane. […]

Molecule: thrombin
- heparanase activity released from platelets (platelets): 100%

B1: purified heparanase: Human platelet heparanase: non-covalently associated 56 kDa (residues 145-530) and 8 kDa (residues 23-96) polypeptides of SEQ ID NO:2 (protein)
chain: QDVVDLDFFTQEPLHLVSPSFLSVTIDANLATDPRFLILLGSPKLRTLARGLSPAYLRFGGTKTDFLIFDPKKESTFEERSYWQSQVNQDICKYGSIPPDVEEKLRLEWPYQEQLLLREHYQKKFKNSTYSRSSVDVLYTFANCSGLDLIFGLNALLRTADLQWNSSNAQLLLDYCSSKGYNISWELGNEPNSFLKKADIFINGSQLGEDFIQLHKLLRKSTFKNAKLYGPDVGQPRRKTAKMLKSFLKAGGEVIDSVTWHHYYLNGRTATKEDFLNPDVLDIFISSVQKVFQVVESTRPGKKVWLGETSSAYGGGAPLLSDTFAAGFMWLDKLGLSARMGIEVVMRQVFFGAGNYHLVDENFDPLPDYWLSLLFKKLVGTKVLMASVQGSKRRKLRVYLHCTNTDNPRYKEGDLTLYAINLHNVTKYLRLPYPFSNKQVDKYLLRPLGPHGLLSKSVQLNGLTLKMVDDQTLPPLMEKPLRPGSSLGLPAFSYSFFVIRNAKVAACI
modifications: two chains: residues 145-530 and 23-96
- optimum pH of heparanase activity (^35S-HSPG (>70 K); pH range 3.5 to 8.0, citrate, citrate-phosphate and phosphate buffers): 5.8

B2: Pro-heparanase: 508 residue protein, amino acid residues 23 to 530 of SEQ ID NO: 2, precursor of heparanase (protein)
chain: B1 chain
- catalytic activity (^35S-HSPG (>70 K); before cleavage of the Glu96-Ser97 and Gln144-Lys145 bonds): not catalytically active
